Test results from the DeepSol protein solubility set.

assay: soluble on expression in E. coli; label from the status in PepcDB or PDB records

Soluble on expression in E. coli, not soluble:
MGSDKIHHHHHHMLLVTSHDIQTALEKGIQYQKLTHLFGTLSLQETENHIILNYLPVDLKTEIGLLRAQCEISGTYKFIQDIYTMMGLKMPDMRIDLPFPKPSDPDTVAQYYAYYGDDLHFNSTHAAFSLSKNVLEIKIPSADIITHRIYEAKCIKEIERLNEQDHQIPPIIQYVQDYLELQQGIIPSMAETAFALKMPERTLRHQLQQLNTSYKQIREQIIKNKALKLMEYKEYSIEVIAEALGYSEPAAFNHAFKRWFGQSPRQYGKEFY, MGSDKIHHHHHHMLNLTPSAISQSIQKLRVIFPDPLFIRKGQGVTPTAFAMHLHEYISQGLESILGALDIEGSYDKQRTITIATTPSVGALVLPVIYRAIKTHYPQLLLRNPPISDAENQLSQFQTDLIIDNMFCTNRTVQHHVLFTDNMVLICREGNPLLSLEDDRETIDNAAHVLLLPEEQNFSGLRQRVQEMFPDRQINFTSYNILTIAALVANSDMLAIIPSRFYNLFSRCWPLEKLPFPSLNEEQIDFSIHYNKFSLRDPILHGVIDVIRNAF, MGSDKIHHHHHHMLNYSLRPENRGKNLESSWQYMFKTYPYLKPWIDSLKQNQALKDTFIYSPDHVKLHAYYVASSRPTAKTAVIVHGYTDNAIRMMMIGYLYNKKLDFNILLPDLRDTGLSGGNAIQMGWLDRKDVTQWMEVANRIYGDSTSMVVHGISMGAATTMMVSGEPQPDYVKCFVEDCGYTSVWDQFSKELKAQFGLPQFPLMYTADWLCQLEYGWGFKEASALKQVARCHLPMFFIHGDKDDYVPTWMVYKLYEAKPQPKALWIVPEADHAHSYLFNTEEYTQKVKAFVDKYIQ, MGSDKIHHHHHHMLPLSAEEFARLVPILRQAGLSHVTHIHELAGGLSNHNYHIQTPTTQYALRLNAEAADRFCSREQELFYWRNLAKAKLAPELIWTSCDHRYYLSAFIESQDIASLLNASQIPDMLGDWADVRGALNWKNLAYQCSAAEFTLGEQRLQTWLQAHAENFECALHQACMPQSFAAQLTPLALLESQCPNRVHSLLLQLLQRLRLQSAGPYHISVTEQWQQYHQQLLAFAATDKGSAWQTRLDLLLGLQPQIHRWTTVLADCLVAAQFCHRDLNPHNLLLKDNQLYCIDFEYATASHPLCELAVVLATHRLTPVQRHILVRQYLADHPGVTSTAITAVPAAIDMYWVFALYWALLIAAQTDAERQQEYLAWFDSFWSLVSQDA, MGSDKIHHHHHHMLPSQRHAFSIPEDVIYLDAAYMSPIPNIATEAGCDGVLVKAAPWDMTINSYYDEVERVRELAASFVGASIDDVGVIPATSYGIAVAAANVHVTPGSVIMMMDNEHTSHRYAWYELAEKKGATVVTVPRRPDQEWGSALAAAIKGSTVPVSVVAGTIVHWFEGMSVDIEVVADAAHAVGAALVMDGTQWVGAVPFDVSRIRPDFLSFATYKFLLGPYRLAFLYADKKWQEAGKPIEFHSWNRKGGERPDFYLETMPDYLPGARRFDMGERSDFAVLPIAIRSLELLQSWGSTAVFERLVHLNELIWKEAEARGFEGPRKDLRAPHISVIELGQRFRPDFARNLKDNKAFVTVRGTKMRITPHVYNEEHDIRRLFELVDSLTR, MGSDKIHHHHHHMLQTDNLIPDFINKQITQAVMSLRSGNVVAFPTETVYGLGADISQPQAIQKIFEIKGRPSSHPLIVHFANLSELEFWAENIPATAWILAQHFWPGPLTLILTKSNHIPLSVTGGQETVGLRIPRHPIALKLLEQLGSCKALAAPSANRFGFVSPTIADHVKNAFNDKIEVILDGGPCEVGLESTIVSCIDKDVTILRPGGISVLSIENLLQQKVSVKSQNKIRTPGSLSSHYATATPLEICQSSESLFSRSFDLLQQGIRTAVIIRSIHLIPMLNSDDKFHYILMPNDPVAFGKDLYATLRKLDDANFERILVEAPPDDLEWLAVADRLSRASYSFTSK, MGSDKIHHHHHHMLRLSALGDVCNLVPTIRVLQRLWPDARITWIIGKGEHSLLAGLSGVEFIVYDKATGLAGMREVWRQLGDTRFDVLLHMQQALRASVLSLGLKADLRIGYDKARAKDWQHWFTHRQLTPHPRAHVLDSFLDFARLLGGAERVDAEPLRWDLAIPDTAYQEAARVTGDAPYIVISPCANPRLRNFRNWSAEGYAAVISHAWQEHGLRTVMTGGGSTQEQEMGARIRALCAEEAVIDAIGATSLKGLLAMLDRARMVIAPDSGPVHMANALRTPTLGLYATTNPERAAPYCWRDFVVDRYPDAVRRYLHKSPEAITWGARVRHPDAMSLIHADDVIAQFDALLNAAPSASSRPEPDHET, MGSDKIHHHHHHMLRLSRELEVGEATVKRWLAGKGLTIDRLERLAGLCGMVLGDLVREAEEAPGVLAHELTLAQERALSSNIFLSFLFMTILNGIQPDETAADFSVPPREMEAALTRLERLALIDRLRSGRVRPLVDRNMVFRKLPLRNLFETHMKRVFFELDYGAPETIYTSEVVKLSVAGAAQLAELLERFRGEVQSLADRDAEKANKDRDWFGVLCVMRPLEMDPIRNAWWELS, MGSDKIHHHHHHMLRPESEAELAQIVAGLTAPVRIRGGGTRGVPGPKAELDISGLSGITLYEPGALTLVAKAGTPVAEIEAALAAEGQRLAFEPVDHRGLMGTGGTPTIGGVVAGNISGPRRIQAGAARDFLLGVRYVDGLGQVISNGGRVMKNVTGYDLVKLMAGSWGTLGVLSEVSLKVLPKAETQTTLAISVPDAASAVRALSAGLGSPYEVTGAAYDPALGQALVRIEGFEASVAYRAEALSRLFAPFGTVARLEDDPWPGIRDVAPFHGREGDVWRISVKPGDAPELAARCKAEALLFDWGGGLIWALMPEGADLRGRLGEFAGHATLIRGDRRQHAMFQPESAPLAALTRGLRQRFDPKGHFNPGLMG, MGSDKIHHHHHHMLSNLWKRQAPQMVGIDIGSHEIKAILLSKTADGYKILSHAAVPVKKGAVNDHEIRDSDAVLESLRLIKRSLPKSVKYAAAAVSGSAVMTKVIYMDASLSEEEMETQIEIEADNLIPYSLDEVSIDFETLSVNSADPSKVDVLLSACRTENIDARVDSLDDINLEAKVIDVEGYALGRSFELVAAQLPDGAEDKVVALVDIGANMTTFAVVEKGETTFIREQAFGGEQFTQSILSFYGMSHEQAEKAKLEGDLPRNYMFEVLSPFQTQLLQQIKRTLQIYCTSSGKDKVDHIVLCGGTSKLEGMANLLTNELGVHTIIADPFLGCLHADEQVKTQLQPTINKYMVACGLALRSYSQWRT, MGSDKIHHHHHHMLSNLWKRQAPQMVGIDIGSHEVKAILLGKTADGYKILSHAAVPVKKGAINDHDIRDADAVVECLRQIKRILPKSVKYAAVAVSGSAVMTKVIYMDASLSEEEMEAQIEIEADNLIPYSLDEVSIDFETLNVNSTDPSKVDVLLSACRTDNIDTRVDALDEVELETKVVDVEGYALGRAVELVLGQLPEGARQKAVAMVDIGANMTTFCVVESGETTFIREQAFGGELFTQSILSFYGMSYEQAEKAKIEGDLPRNYMFEVLSPFQTQLLQQIKRTLQIYCTSSGKDKVDYLVLCGGTSKLEGMANLLTNELGVHTIIADPFQGCLHADESVKNILQPSISKYMVACGLALRSYGQWRT, MGSDKIHHHHHHMLSVNRIVISAAGGGKTTRVVDQALACEQGQGATALITYTRNNVREIQLKAYERTRTIPSHVEVISWYSFLLRELARPYRSAMHASRVDGIHWVEGKSVPYIPEARTSGHYFFDGSRIYSDKIAKFVCECDRRSGGAIMRRLKQRFRHIIIDEIQDMAGYDLDLLELILKAGVPVTFVGDHRQATFATNNASKNKVFSGPAIIKKFELWKKQGLVEIEYETHTHRCNQTIADLGDGFFPNEPKTVSRNDKVTGHDGVFLVSSADVGEYMKRFAPQVLRYSAATNCDLDEAMNFGESKGLTFERVLIYPHGPARKWLASGDIRHVEKSLTKMYVAVTRARYSVAFVHDGKICSVAATKWVPG, MGSDKIHHHHHHMLTGHHAPVRAYDAHASSNSSTGFRGRLRLSVATTERQCSMIIAHLSDLHIRETGKPFASGNVDCTARAAQAFERVANMTPRPDMMVVTGDLADSGQIGEYQLLKELTEGLPFPVHLALGNHDIRENFLAVFPEKKGPGGFVQFCVEHDKLRVIGLDTLVEGEGLGRLCSERLSYLRDCLQERPNTSTLILLHHPPFAFGGGIYDAVRLIDGARELGEIITANKQVVRLLCGHHHRAIDCLWNGTLASVAPSVVSSCHLQLGDVRVFKNINEPPAFKLHVLVPESGFVSHNVFVEDFGPAYENIPDPNYQALASMRKQTALAASR
